Results reported in patent publication US12661385B2, “Modulation of mTORCI activity and autophagy via CIB2-RHEB interaction” (University of Maryland, Baltimore, priority 2018, dated 2026).

System: Rheb
Experiment: Co-IP of tdTomato-CIB2 with HA-GST-Rheb and Rheb variants
Assay type: binding
Settings: co-IP assay
Method: FIG. 3. […] Note the stronger interaction between CIB2 and Rheb S20N variant as compared to Q64L variant (GDP vs GTP mimetic, respectively). c, CIB2 preferentially interacts with GDP-loaded Rheb is further confirmed by co-IP experiments of HA-GST-Rheb immobilized on […] and loaded with either GDP or GTPγS, followed by incubation with tdTomato-CIB2 lysate. d, Proposed model of CIB2 function in retinal sensory cells. […] Loss of CIB2 results in reduced autophagy and exacerbated mTORC1 signaling, thus leading to RPE pathology and secondary PR dysfunction. e, f Immunoblots from RPE/choroid lysates from dry AMD or control age-matched donors indicate reduced CIB2 expression, overactive mTORC1 and reduced autophagy, quantified in panel f. Unpaired two-tailed 1 test was used to determine statistical significance. p value of <0.05 (*), <0.01 (**), and <0.001 (***). Please note that one control sample (ψ) is outliner and is highly variant from the rest, Re-quantification, omitting the highly variant control sample, is shown in FIG. 15. g.
We tested the essentiality of nucleotide binding state of Rheb using co-IP assays. […] Next, we used the Q64L and […] Rheb variants, which mimic the GTP- and GDP-bound state, respectively. […]

Binding preference among Rheb-WT, Q64L (GTP mimetic) and S20L (GDP mimetic) variants: bound preferentially to the S20L variant
B1: CIB2: calcium and integrin binding protein 2, over-expressed in cells from plasmid constructs; SEQ ID NO:1 (human), SEQ ID NO:2 (mouse) (protein)
chain: MGNKQTIFTEEQLDNYQDCTFFNKKDILKLHARFYELAPNLVPMDYRKSPIVHVPMSLIIQMPELRENPFKERIVEAFSEDGEGNLTFNDFVDMFSVLCESAPRELKANYAFKIYDFNTDNFICKEDLEMTLARLTKSELEEDEVVLVCDKVIEEADLDGDGKLGFADFEDMIAKAPDFLSTFHIRI
modifications: left off: large carriers
